Data reported in patent publication US7183387 (Genentech, dated 2007).
Values belong to the binder of their own block, whether it stands above or below them.

Key:
[1] = target: T1, human neonatal Fc receptor (FcRn), biotinylated (human, UniProt P55899 24-297; P61769 21-119, biotinylated (biotin-X-NHS)); test: FcRn ELISA, pH 6.0;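 also: Streptavidin-captured FcRn plates, IgG variants titrated 2 h at pH 6.0, peroxidase anti-human IgG read at 450 nm, variant over standard concentration at the standard curve mid-point absorbance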
T1 construct: captured on streptavidin plates

[2] = target: T2, human FcγRIIIA-Phe158 α subunit extracellular domain-His6-GST fusion (human, UniProt P08637 17-208); test: hexamer ELISA
T2 construct: extracellular domain; also called FcγRIIIA-F158; CD16; not shown: glutathione S transferase (GST)
T2 sequence (P08637 other isoform, or with tags, fused parts or gaps): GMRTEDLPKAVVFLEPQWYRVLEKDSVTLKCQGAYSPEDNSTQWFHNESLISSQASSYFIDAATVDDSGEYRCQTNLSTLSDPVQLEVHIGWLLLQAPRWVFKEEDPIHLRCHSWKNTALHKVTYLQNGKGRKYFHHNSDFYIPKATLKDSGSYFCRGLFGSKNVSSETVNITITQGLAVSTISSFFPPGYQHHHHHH

[3] = target: T3, human FcγRIIA-Arg131 α subunit extracellular domain-His6-GST fusion (human, UniProt P12318 34-217); test: hexamer ELISA
T3 construct: extracellular domain; also called FcγRIIA-R131; not shown: glutathione S transferase (GST)
T3 sequence: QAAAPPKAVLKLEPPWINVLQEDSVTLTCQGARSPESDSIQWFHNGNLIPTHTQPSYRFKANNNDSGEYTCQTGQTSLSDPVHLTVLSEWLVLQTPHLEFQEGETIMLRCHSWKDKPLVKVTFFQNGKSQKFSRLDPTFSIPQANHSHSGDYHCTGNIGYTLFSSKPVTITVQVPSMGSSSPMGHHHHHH

[4] = target: T4, human FcγRIIB α subunit extracellular domain-His6-GST fusion (human, UniProt P31994 43-217); test: hexamer ELISA
T4 construct: extracellular domain; also called CD32; not shown: glutathione S transferase (GST)
T4 sequence: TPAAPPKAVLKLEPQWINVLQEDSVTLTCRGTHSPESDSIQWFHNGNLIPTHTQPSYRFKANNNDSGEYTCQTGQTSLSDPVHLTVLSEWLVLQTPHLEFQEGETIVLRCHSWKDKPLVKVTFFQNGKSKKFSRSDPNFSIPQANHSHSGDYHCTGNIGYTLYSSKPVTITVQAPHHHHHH

[5] = target: T5, human FcγRIA α subunit extracellular domain-His6-GST fusion (human, UniProt P12314 16-292); test: FcγRI ELISA and THP-1 cells, averaged
T5 construct: extracellular domain; also called GST-FcγRIA; CD64; not shown: glutathione S transferase (GST)
T5 sequence (P12314 other isoform, or with tags, fused parts or gaps): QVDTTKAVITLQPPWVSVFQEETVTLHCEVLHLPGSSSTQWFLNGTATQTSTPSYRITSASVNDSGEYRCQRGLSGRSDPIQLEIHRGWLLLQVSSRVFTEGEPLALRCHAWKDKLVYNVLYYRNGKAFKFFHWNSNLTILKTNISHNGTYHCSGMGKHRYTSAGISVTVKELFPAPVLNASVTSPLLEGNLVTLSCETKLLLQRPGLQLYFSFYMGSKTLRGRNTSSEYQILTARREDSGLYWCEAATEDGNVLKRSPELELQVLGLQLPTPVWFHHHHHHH

[6] = target: T6, human FcγRIIIA-V158 α subunit extracellular domain-His6-GST fusion (human, UniProt P08637 17-208); test: ELISA, IgG monomer, receptor coated
T6 construct: ECD-6His-GST fusion made in 293 cells; also called FcγRIIIA-Val158; not shown: glutathione S transferase (GST)
T6 sequence (P08637 other isoform, or with tags, fused parts or gaps, form in doubt): as the sequence (P08637 other isoform, or with tags, fused parts or gaps) above, with F160V counted along it

[7] = target: T7, human FcγRIIIA-F158 α subunit extracellular domain-His6-GST fusion (human, UniProt P08637 17-208); test: ELISA, IgG complex, receptor coated
T7 construct: ECD-6His-GST fusion made in 293 cells; also called FcγRIIIA-Phe158; not shown: glutathione S transferase (GST)
T7 sequence (P08637 other isoform, or with tags, fused parts or gaps, form in doubt): as the sequence (P08637 other isoform, or with tags, fused parts or gaps) above

[8] = target: T8, human FcγRIIA-R131 α subunit extracellular domain-His6-GST fusion (human, UniProt P12318 34-217); test: ELISA, IgG complex, receptor coated
T8 construct: ECD-6His-GST fusion made in 293 cells; also called FcγRIIA-Arg131; not shown: glutathione S transferase (GST)
T8 sequence: T3 sequence

B1: anti-IgE E27 IgG1 Ile253Ala (antibody)
heavy: not shown
light: DIQLTQSPSSLSASVGDRVTITCRASKPVDGEGDSYLNWYQQKPGKAPKLLIYAASYLESGVPSRFSGSGSGTDFTLTISSLQPEDFATYYCQQSHEDPYTFGQGTKVEIKRTVAAPSVFIFPPSDEQLKSGTASVVCLLNNFYPREAKVQWKVDNALQSGNSQESVTEQDSKDSTYSLSSTLTLSKADYEKHKVYACEVTHQGLSSPVTKSFNRGEC
ratio to native IgG1 [1]: 0.1 ratio
ratio to native IgG1 [2]: 1.08 ratio
ratio to native IgG1 [3]: 1.14 ratio
ratio to native IgG1 [4]: 1.18 ratio
ratio to native IgG1 [5]: 0.96 ratio

B2: anti-IgE E27 IgG1 Lys326Ala (antibody)
heavy: not shown
light: B1 light
ratio to native IgG1 [1]: 1.03 ratio
ratio to native IgG1 [2]: 1.23 ratio
ratio to native IgG1 [3]: 1.23 ratio
ratio to native IgG1 [4]: 1.41 ratio
ratio to native IgG1 [5]: 1.03 ratio

B6: anti-IgE E27 IgG1 Lys290Ala (antibody)
heavy: not shown
light: B1 light
notes: also called K290(307)A
ratio to native IgG1 [1]: 0.79 ratio
ratio to native IgG1 [2]: 1.31 ratio
ratio to native IgG1 [3]: 1.3 ratio
ratio to native IgG1 [4]: 1.38 ratio
ratio to native IgG1 [5]: 1.01 ratio

B7: anti-IgE E27 IgG1 Lys317Ala (antibody)
heavy: not shown
light: B1 light
notes: also called Lys317A1a
ratio to native IgG1 [1]: 1.44 ratio
ratio to native IgG1 [2]: 1.1 ratio
ratio to native IgG1 [3]: 1.13 ratio
ratio to native IgG1 [4]: 1.18 ratio
ratio to native IgG1 [5]: 0.92 ratio

B9: anti-IgE E27 IgG1 Ser267Ala (antibody)
heavy: not shown
light: B1 light
notes: also called G15 S267A
ratio to native IgG1 [1]: 1.08 ratio
ratio to native IgG1 [2]: 1.05 ratio
ratio to native IgG1 [3]: 1.52 ratio
ratio to native IgG1 [4]: 1.84 ratio
ratio to native IgG1 [5]: 1.09 ratio

B12: anti-IgE E27 IgG1 Lys334Ala (antibody)
heavy: not shown
light: B1 light
notes: also called G55 K334A
ratio to native IgG1 [1]: 1.05 ratio
ratio to native IgG1 [2]: 1.39 ratio
ratio to native IgG1 [3]: 1.01 ratio
ratio to native IgG1 [4]: 0.9 ratio
ratio to native IgG1 [5]: 1.06 ratio

B14: anti-IgE E27 IgG1 Leu309Ala (antibody)
heavy: not shown
light: B1 light
ratio to native IgG1 [1]: 0.63 ratio
ratio to native IgG1 [2]: 1.07 ratio
ratio to native IgG1 [3]: 1.13 ratio
ratio to native IgG1 [4]: 1.26 ratio
ratio to native IgG1 [5]: 0.93 ratio

B15: anti-IgE E27 IgG1 Lys338Ala (antibody)
heavy: not shown
light: B1 light
ratio to native IgG1 [1]: 1.14 ratio
ratio to native IgG1 [2]: 0.15 ratio
ratio to native IgG1 [3]: 0.78 ratio
ratio to native IgG1 [4]: 0.63 ratio
ratio to native IgG1 [5]: 0.9 ratio

B16: anti-IgE E27 IgG1 Lys360Ala (antibody)
heavy: not shown
light: B1 light
ratio to native IgG1 [1]: 1.3 ratio
ratio to native IgG1 [2]: 1.23 ratio
ratio to native IgG1 [3]: 1.12 ratio
ratio to native IgG1 [4]: 1.12 ratio
ratio to native IgG1 [5]: 1.02 ratio

B17: anti-IgE E27 IgG1 Ser239Ala (antibody)
heavy: not shown
light: B1 light
ratio to native IgG1 [1]: 1.06 ratio
ratio to native IgG1 [2]: 0.26 ratio
ratio to native IgG1 [3]: 0.73 ratio
ratio to native IgG1 [4]: 0.76 ratio
ratio to native IgG1 [5]: 0.81 ratio

B21: anti-IgE E27 IgG1 Pro238Ala (antibody)
heavy: not shown
light: B1 light
ratio to native IgG1 [1]: 1.49 ratio
ratio to native IgG1 [2]: 0.07 ratio
ratio to native IgG1 [3]: 0.38 ratio
ratio to native IgG1 [4]: 0.36 ratio
ratio to native IgG1 [5]: 0.6 ratio

B22: anti-IgE E27 IgG1 Lys288Ala (antibody)
heavy: not shown
light: B1 light
ratio to native IgG1 [1]: 0.38 ratio
ratio to native IgG1 [2]: 1.06 ratio
ratio to native IgG1 [3]: 1.15 ratio
ratio to native IgG1 [4]: 1.14 ratio
ratio to native IgG1 [5]: 0.88 ratio

The remaining lines, values ahead:

ratio of binding, variant/native IgG1 (mean) [6]: 0.78 ratio
ratio of binding, variant/native IgG1 (mean) [7]: 1.01 ratio
ratio of binding, variant/native IgG1 (mean) [8]: 1.24 ratio
B3: anti-IgE E27 IgG1 variant E283(300)A (antibody)
heavy: not shown
light: B1 light
notes: Fc variant of E27; also called IG2 25

ratio to native IgG1 [1]: 1.26 ratio
ratio to native IgG1 [2]: 0.33 ratio
ratio to native IgG1 [3]: 0.86 ratio
ratio to native IgG1 [4]: 0.65 ratio
ratio to native IgG1 [5]: 0.91 ratio
B4: anti-IgE E27 IgG1 Val303Ala (antibody)
heavy: not shown
light: B1 light

ratio to native IgG1 [1]: 1.03 ratio
ratio to native IgG1 [2]: 0.94 ratio
ratio to native IgG1 [3]: 1.22 ratio
ratio to native IgG1 [4]: 1.26 ratio
ratio to native IgG1 [5]: 1.17 ratio
B5: anti-IgE E27 IgG1 Ser337Ala (antibody)
heavy: not shown
light: B1 light

ratio of binding, variant/native IgG1 (mean) [6]: 0.67 ratio
ratio of binding, variant/native IgG1 (mean) [7]: 0.95 ratio
ratio of binding, variant/native IgG1 (mean) [8]: 1.14 ratio
B8: anti-IgE E27 IgG1 variant E283(300)D (antibody)
heavy: not shown
light: B1 light
notes: Fc variant of E27

ratio to native IgG1 [1]: 0.44 ratio
ratio to native IgG1 [2]: 0.86 ratio
ratio to native IgG1 [3]: 0.9 ratio
ratio to native IgG1 [4]: 0.88 ratio
ratio to native IgG1 [5]: 1.04 ratio
B10: anti-IgE E27 IgG1 Ser415Ala (antibody)
heavy: not shown
light: B1 light

ratio to native IgG1 [1]: 1.41 ratio
ratio to native IgG1 [2]: 0.89 ratio
ratio to native IgG1 [3]: 1.04 ratio
ratio to native IgG1 [4]: 1.02 ratio
ratio to native IgG1 [5]: 0.98 ratio
B11: anti-IgE E27 IgG1 Ser424Ala (antibody)
heavy: not shown
light: B1 light

ratio to native IgG1 [1]: 1.46 ratio
ratio to native IgG1 [2]: 0.84 ratio
ratio to native IgG1 [3]: 1.12 ratio
ratio to native IgG1 [4]: 1.23 ratio
ratio to native IgG1 [5]: 1.04 ratio
B13: anti-IgE E27 IgG1 Val305Ala (antibody)
heavy: not shown
light: B1 light

ratio to native IgG1 [1]: 1.81 ratio
ratio to native IgG1 [2]: 1.09 ratio
ratio to native IgG1 [3]: 1.07 ratio
ratio to native IgG1 [4]: 1.27 ratio
ratio to native IgG1 [5]: 0.99 ratio
B18: anti-IgE E27 IgG1 Thr307Ala (antibody)
heavy: not shown
light: B1 light

ratio to native IgG1 [1]: 0.8 ratio
ratio to native IgG1 [2]: 1.34 ratio
ratio to native IgG1 [3]: 0.4 ratio
ratio to native IgG1 [4]: 0.23 ratio
ratio to native IgG1 [5]: 1.11 ratio
B19: anti-IgE E27 IgG1 Ser298Ala (antibody)
heavy: not shown
light: B1 light
notes: also called G36 S298A

ratio to native IgG1 [1]: 1.91 ratio
ratio to native IgG1 [2]: 1.32 ratio
ratio to native IgG1 [3]: 1.41 ratio
ratio to native IgG1 [4]: 2.06 ratio
ratio to native IgG1 [5]: 1.01 ratio
B20: anti-IgE E27 IgG1 Thr256Ala (antibody)
heavy: not shown
light: B1 light
